The values that follow come from paper PMC5443830.

The assay deals with Cry1AcMod activated toxin (Bacillus thuringiensis) (UniProt P05068). Briefly: SDS-PAGE and western blot of the 200 kDa oligomer band.

“Cry1AcMod activated toxin (from UniProt P05068 1-1178) (domain or fragment)” came in with an optical density of the 200 kDa oligomer band with BBMV from the resistant strain relative to BBMV from the susceptible strain (=100%) of 100%.
